Source: paper PMC4344327, “Region-Specific Activation of oskar mRNA Translation by Inhibition of Bruno-Mediated Repression” (PLoS Genetics, 2015)

T1: GST::Bru (full-length Bruno fused to GST) (Drosophila, UniProt O02374 1-604)
T1 construct: Bruno (Bru; encoded by the aret gene), Drosophila; full-length bru cDNA subcloned into pGEX-2TK; Vector pGEX-2TK; source: E. coli CodonPlus, extract, immobilized on Glutathione Sepharose 4B
T1 sequence (looked up): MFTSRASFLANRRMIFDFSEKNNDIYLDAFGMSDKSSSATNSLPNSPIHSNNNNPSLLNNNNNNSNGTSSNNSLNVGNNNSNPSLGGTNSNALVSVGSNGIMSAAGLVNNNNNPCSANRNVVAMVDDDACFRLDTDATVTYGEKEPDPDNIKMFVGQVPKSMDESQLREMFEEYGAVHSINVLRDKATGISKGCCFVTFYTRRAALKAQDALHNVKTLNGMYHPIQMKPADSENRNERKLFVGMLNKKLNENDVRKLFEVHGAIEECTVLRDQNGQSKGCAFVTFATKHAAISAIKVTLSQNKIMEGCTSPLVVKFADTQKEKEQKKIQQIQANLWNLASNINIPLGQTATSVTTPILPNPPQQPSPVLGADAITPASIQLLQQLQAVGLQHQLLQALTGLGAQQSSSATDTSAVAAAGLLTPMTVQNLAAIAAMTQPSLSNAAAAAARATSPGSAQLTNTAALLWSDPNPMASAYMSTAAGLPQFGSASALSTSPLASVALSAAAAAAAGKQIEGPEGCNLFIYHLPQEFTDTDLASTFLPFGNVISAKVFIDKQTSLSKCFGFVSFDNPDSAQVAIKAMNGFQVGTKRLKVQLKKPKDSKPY

B1: His6::Bru (full-length Bruno, Bru+) (natural protein, Drosophila, UniProt O02374 1-604, looked up)
chain: T1 sequence (looked up)
notes: Bruno (Bru; encoded by the aret gene), Drosophila; full-length Bru in pET-15b; Vector pET-15b; The tethered transgene proteins carry RRM2/RRM3 point mutations; source: E. coli, purified (Ni-NTA); not shown: His6, N-terminal, kept
B2: His6::Bru Δ334–416 (natural protein, Drosophila, UniProt O02374 1-604, looked up)
chain: MFTSRASFLANRRMIFDFSEKNNDIYLDAFGMSDKSSSATNSLPNSPIHSNNNNPSLLNNNNNNSNGTSSNNSLNVGNNNSNPSLGGTNSNALVSVGSNGIMSAAGLVNNNNNPCSANRNVVAMVDDDACFRLDTDATVTYGEKEPDPDNIKMFVGQVPKSMDESQLREMFEEYGAVHSINVLRDKATGISKGCCFVTFYTRRAALKAQDALHNVKTLNGMYHPIQMKPADSENRNERKLFVGMLNKKLNENDVRKLFEVHGAIEECTVLRDQNGQSKGCAFVTFATKHAAISAIKVTLSQNKIMEGCTSPLVVKFADTQKEKEQKKIQQIQAAAGLLTPMTVQNLAAIAAMTQPSLSNAAAAAARATSPGSAQLTNTAALLWSDPNPMASAYMSTAAGLPQFGSASALSTSPLASVALSAAAAAAAGKQIEGPEGCNLFIYHLPQEFTDTDLASTFLPFGNVISAKVFIDKQTSLSKCFGFVSFDNPDSAQVAIKAMNGFQVGTKRLKVQLKKPKDSKPY
notes: also called Bru lacking most of the linker domain between RRMs 2 and 3; source: E. coli, purified (Ni-NTA); not shown: His6, N-terminal, kept
B3: His6::Bru 1–146 (isolated amino-terminal domain) (domain or fragment, Drosophila, UniProt O02374 1-146, looked up)
chain: MFTSRASFLANRRMIFDFSEKNNDIYLDAFGMSDKSSSATNSLPNSPIHSNNNNPSLLNNNNNNSNGTSSNNSLNVGNNNSNPSLGGTNSNALVSVGSNGIMSAAGLVNNNNNPCSANRNVVAMVDDDACFRLDTDATVTYGEKEP
notes: also called Bru amino-terminal domain; source: E. coli, purified (Ni-NTA); not shown: His6, N-terminal, kept

Biological target: T1, GST::Bru (full-length Bruno fused to …)
Assay: pull-down; GST::Bru, GST::Cup or GST immobilized on Glutathione Sepharose 4B from E. coli extract and washed; ~100 ng N-terminally His6-tagged Bru protein in 80 μl binding buffer (50mM Tris-Cl pH7.5, 150mM NaCl, 10% glycerol, 1mM DTT, 0.1% IGEPAL-CA-630), 2–3 hr at room temperature; Western blot with anti-His antibody
Details: both partners purified

| Binder | binding result |
| --- | --- |
| B1 | binds |
| B2 | binds |
| B3 | binds |
